We go through three molecules from patent US20050089938A1, “Use of peptide fragments of the calcium channel a-1 subunit, optionally comprising mutations, for screening molecules of therapeutic interest” (priority 2001, published 2005).

In assay [1] the target is T1, Cav2.1 channel (Oryctolagus cuniculus, UniProt P27884).
T1 construct: expressed in transfected cells; host or cells: Xenopus laevis oocytes (cRNA injection)
The assay can be described thus: Inactivation kinetics of the Cav2.1 channel expressed in Xenopus oocytes, two-electrode voltage-clamp Ba2+ currents. It counts as cell-based, rabbit. The method, then: Xenopus oocytes are removed at Stages V and VI from ovaries of Xenopus laevis frogs from South Africa and maintained in standard saline solution (Barth's medium). The cells are treated with collagenase type IA (2 mg/ml) for two hours and the follicular membranes are eliminated manually. The oocytes are maintained in DNOM medium (defined nutrient oocyte medium) for 2 days before injection of cRNA coding for the Cav2.1 channel. The injection of this cRNA coding for the wild-type or mutated channel is carried out at a concentration of 0.3 μg/μl. In the case of coinjection of other cRNAs (for example: CD8-III-IV, III-IV, etc.), these cRNAs are injected at a concentration of 0.1 μg/μl. The injections of III-IV peptide are carried out at a final intracellular concentration of 10 μM. […] Following the cRNA injections, the cells are kept at 16° C. in DNOM medium for a minimum of 4-5 days before continuing with the electrophysiological recordings.
We applied the two-electrode voltage-clamp technique for the recordings of Ba^2+ currents (the Ba^2+ is more permeable than the Ca^2+ through the high-threshold calcium channels and facilitates our analyses). The recordings are carried out with a GeneClamp amplifier from Axon Instruments (Foster City, Calif.). […] The data are analyzed with the pCLAMP software suite version 6.03 (Axon Instruments). […]

For assay [2], the system named is high threshold calcium channels. The assay can be described thus: High-threshold calcium current after expression of the I-II loop in bovine chromaffin cells. It counts as cell-based. The conditions noted are these: bovine chromaffin cells transfected with I-II loop coupled to CD8 transmembrane segment and GFP. The source says:
(§1) The expression of the I-II loop of the Cav2.1 channel is induced following a cell transfection method (thanks to a transfection agent: lipofectamine, fugene etc.). In order to have the ability to bind the endogenous β sub-units to these cells, we have noted that the ability of this I-II sequence to reduce the expression at the plasma membrane of the endogenous high-threshold calcium channels is facilitated by its coupling to a transmembrane segment. The Inventors have used for their experiments the transmembrane segment of the α chain of the human CD8 receptor, coupled to the amino-terminal part of the I-II loop. In order to facilitate the detection of the transfected cells, the carboxy-terminal part of the I-II loop was coupled to GFP protein (Green Fluorescent Protein) which has the property of green fluorescence (easily detectable in fluorescence microscopy). FIG. 1A illustrates the construction used for these experiments. FIG. 1B illustrates the amino-acid sequence of the transmembrane sequence of the α chain of the CD8 receptor.

Assay [3] has the same test system. Nature of the assay: High-threshold calcium current after expression of the I-II loop in rat cerebellum granular cells. It counts as cell-based. The conditions noted are these: rat cerebellum granular cells transfected with I-II loop coupled to CD8 transmembrane segment and GFP.
Text: as §1

Assay [4] has as its target T2, III-IV loop of Cav2.1 (Oryctolagus cuniculus, UniProt P27884).
T2 construct: This III-IV loop has been expressed and purified as a GST (Glutathione-S-Tranferase) fusion protein; made in house
Nature of the assay: Binding of 35S-methionine labelled in vitro translated I-II loop to GST-III-IV fusion protein. Details: species or system rabbit. The conditions noted are these: 35S-methionine labelled I-II loop, absence of β sub-unit. The source says: FIG. 2: Binding of the I-II loop of Cav2.1 to different intracellular loops. […] This III-IV loop has been expressed and purified as a GST (Glutathione-S-Tranferase) fusion protein. The I-II protein of the channel has been translated in vitro and labelled by a radioactive amino acid (^35S-methionine) in order to monitor its binding to the GST-III-IV fusion protein.
These two amino acids are therefore indispensable to the binding of the I-II loop to the III-IV loop in the absence of the β sub-unit of the calcium channel.

T1 sequence (P27884 whole entry): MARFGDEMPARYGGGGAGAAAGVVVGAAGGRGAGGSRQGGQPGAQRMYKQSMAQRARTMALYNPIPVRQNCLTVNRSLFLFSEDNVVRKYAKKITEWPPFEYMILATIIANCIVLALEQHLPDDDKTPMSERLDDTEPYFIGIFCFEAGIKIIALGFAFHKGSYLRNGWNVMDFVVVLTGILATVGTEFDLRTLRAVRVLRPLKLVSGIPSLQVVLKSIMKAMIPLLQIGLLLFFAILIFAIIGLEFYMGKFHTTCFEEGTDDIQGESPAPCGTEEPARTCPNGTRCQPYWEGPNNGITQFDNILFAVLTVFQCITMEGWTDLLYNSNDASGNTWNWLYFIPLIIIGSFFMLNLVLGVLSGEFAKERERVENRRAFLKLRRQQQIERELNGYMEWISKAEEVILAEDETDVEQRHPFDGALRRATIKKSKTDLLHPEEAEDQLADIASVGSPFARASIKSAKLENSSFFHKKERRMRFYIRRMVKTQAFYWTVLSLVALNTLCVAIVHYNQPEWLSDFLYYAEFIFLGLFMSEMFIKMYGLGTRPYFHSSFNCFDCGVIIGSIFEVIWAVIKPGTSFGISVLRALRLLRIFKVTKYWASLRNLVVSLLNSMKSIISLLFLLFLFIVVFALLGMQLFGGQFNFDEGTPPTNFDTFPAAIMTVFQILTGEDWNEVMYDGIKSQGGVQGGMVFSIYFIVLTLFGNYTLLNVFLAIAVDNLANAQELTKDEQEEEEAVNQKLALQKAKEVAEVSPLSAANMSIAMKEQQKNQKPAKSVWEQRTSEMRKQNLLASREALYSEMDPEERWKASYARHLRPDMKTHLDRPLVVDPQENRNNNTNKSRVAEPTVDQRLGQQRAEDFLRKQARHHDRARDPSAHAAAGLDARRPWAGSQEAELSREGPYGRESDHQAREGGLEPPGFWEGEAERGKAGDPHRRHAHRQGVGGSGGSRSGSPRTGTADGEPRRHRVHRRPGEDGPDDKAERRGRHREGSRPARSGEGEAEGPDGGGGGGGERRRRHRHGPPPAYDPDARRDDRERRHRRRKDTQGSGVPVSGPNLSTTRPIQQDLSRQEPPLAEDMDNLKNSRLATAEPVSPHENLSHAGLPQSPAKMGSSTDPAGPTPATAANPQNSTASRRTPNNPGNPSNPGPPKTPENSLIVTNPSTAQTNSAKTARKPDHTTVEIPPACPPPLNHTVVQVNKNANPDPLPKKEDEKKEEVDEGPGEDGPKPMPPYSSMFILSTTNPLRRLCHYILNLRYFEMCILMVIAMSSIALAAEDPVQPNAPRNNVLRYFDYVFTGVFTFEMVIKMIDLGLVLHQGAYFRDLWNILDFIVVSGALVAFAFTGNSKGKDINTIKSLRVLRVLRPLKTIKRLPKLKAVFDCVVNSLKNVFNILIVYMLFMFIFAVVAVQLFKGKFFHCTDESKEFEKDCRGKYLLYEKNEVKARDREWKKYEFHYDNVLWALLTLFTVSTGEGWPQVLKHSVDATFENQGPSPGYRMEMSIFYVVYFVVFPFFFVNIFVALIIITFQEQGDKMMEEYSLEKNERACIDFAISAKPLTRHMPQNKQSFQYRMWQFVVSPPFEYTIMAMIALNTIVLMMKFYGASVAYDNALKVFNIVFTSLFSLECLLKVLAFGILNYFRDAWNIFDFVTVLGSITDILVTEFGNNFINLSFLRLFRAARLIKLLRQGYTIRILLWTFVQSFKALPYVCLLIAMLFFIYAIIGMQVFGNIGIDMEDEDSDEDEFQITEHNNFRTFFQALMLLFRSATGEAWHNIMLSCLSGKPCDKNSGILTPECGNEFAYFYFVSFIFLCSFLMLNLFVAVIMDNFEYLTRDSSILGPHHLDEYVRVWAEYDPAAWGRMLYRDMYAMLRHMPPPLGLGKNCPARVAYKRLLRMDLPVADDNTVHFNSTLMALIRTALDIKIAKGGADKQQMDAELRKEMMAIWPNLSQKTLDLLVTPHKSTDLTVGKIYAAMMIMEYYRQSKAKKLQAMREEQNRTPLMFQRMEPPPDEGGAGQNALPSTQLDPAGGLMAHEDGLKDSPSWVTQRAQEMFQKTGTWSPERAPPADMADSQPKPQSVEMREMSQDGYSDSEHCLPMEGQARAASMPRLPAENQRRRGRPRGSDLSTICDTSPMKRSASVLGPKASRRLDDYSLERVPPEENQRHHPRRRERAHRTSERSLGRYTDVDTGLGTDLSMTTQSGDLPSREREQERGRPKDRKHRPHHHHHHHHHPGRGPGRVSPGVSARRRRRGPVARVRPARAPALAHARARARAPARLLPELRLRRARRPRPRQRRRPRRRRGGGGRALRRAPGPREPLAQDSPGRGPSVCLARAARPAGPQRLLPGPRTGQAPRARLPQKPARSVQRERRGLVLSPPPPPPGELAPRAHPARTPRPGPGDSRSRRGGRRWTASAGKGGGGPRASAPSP
T2 sequence (P27884 1521-1575): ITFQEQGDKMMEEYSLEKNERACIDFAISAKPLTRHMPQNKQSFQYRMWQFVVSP

“III-IV loop: III-IV loop of Cav2.1 expressed coupled in amino-terminal position with the α chain of the human CD8 receptor”: in assay [1] (III-IV loop associated with the plasma membrane via amino-terminal coupling to α chain of human CD8 receptor, cRNA coinjection), the “effect on inactivation kinetics of the Cav2.1 channel” value was “accelerates the inactivation kinetics”.
Regarding “peptide representing the 40 carboxy-terminal amino acids of the III-IV loop: peptide representing the 40 carboxy-terminal amino acids of the III-IV loop of Cav2.1 (LEKNERACIDFAISAKPLTRHMPQNKQSFQYRMWQFVVSP)”, the “effect on inactivation kinetics of the Cav2.1 channel” value in assay [1] (peptide free in the cytoplasm, injected, final intracellular concentration 10 μM) is recorded as “acceleration is similar”.

B1: I-II loop of the Cav2.1 sub-unit: I-II loop of the Cav2.1 calcium channel sub-unit; in cells coupled to CD8 transmembrane segment and GFP (protein, listed as Oryctolagus cuniculus)
chain: SGEFAKERERVENRRAFLKLRRQQQIERELNGYMEWISKAEEVILAEDETDVEQRHPFDGALRRATIKKSKTDLLHPEEAEDQLADIASVGSPFARASIKSAKLENSSFFHKKERRMRFYIRRMVKTQ
In the case of B1, the “reduction of the high-threshold calcium current” value in assay [2] and in assay [3] was “more than 50%” each time. The “binding to the GST-III-IV fusion protein” value in assay [4] is “binding of I-II is evident”.
